Reference: article PMC3594540

Tests used:
[1] = target: murine Gαq (residues 7–359), biotinylated for bead binding (murine) (UniProt P21279); experiment: flow cytometry protein interaction assay
[2] = target: PLCβ3-Δ892 (human) (UniProt Q01970)
[3] = target: Gαq-ΔN (murine) (UniProt P21279); experiment: flow cytometry protein interaction assay
[4] = target: Gαq D296A P298D (murine) (UniProt P21279); experiment: flow cytometry protein interaction assay
[5] = target: Gαq K311A (murine) (UniProt P21279); experiment: flow cytometry protein interaction assay
Sequence of Gαq K311A (murine) (P21279 7-359 K311A): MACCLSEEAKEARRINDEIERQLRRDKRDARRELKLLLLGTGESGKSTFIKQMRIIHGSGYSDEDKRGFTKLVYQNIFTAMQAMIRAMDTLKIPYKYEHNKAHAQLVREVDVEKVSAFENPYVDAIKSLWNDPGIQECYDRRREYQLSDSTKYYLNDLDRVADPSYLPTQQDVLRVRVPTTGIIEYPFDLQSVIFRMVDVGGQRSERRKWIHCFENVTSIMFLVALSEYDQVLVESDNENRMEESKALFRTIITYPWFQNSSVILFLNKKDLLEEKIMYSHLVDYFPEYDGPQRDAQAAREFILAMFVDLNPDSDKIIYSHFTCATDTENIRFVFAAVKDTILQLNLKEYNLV

[6] = target: PLCβ3-Δ892 T652E (human) (UniProt Q01970)

Sequence of Gαq-ΔN (murine) (P21279 37-359, stated change not applied): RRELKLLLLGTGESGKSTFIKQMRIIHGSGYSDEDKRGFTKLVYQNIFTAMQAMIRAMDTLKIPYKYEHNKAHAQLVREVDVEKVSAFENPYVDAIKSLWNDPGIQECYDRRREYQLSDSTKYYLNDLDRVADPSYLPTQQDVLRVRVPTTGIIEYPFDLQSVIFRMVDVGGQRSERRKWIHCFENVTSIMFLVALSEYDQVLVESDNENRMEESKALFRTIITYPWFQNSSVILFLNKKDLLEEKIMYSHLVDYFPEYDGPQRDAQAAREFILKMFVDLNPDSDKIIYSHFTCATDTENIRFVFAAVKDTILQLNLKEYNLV
Sequence of murine Gαq (residues 7–359), biotinylated for bead binding (murine) (P21279 7-359): as the sequence (P21279 7-359 K311A) above, with A305K counted along it
Sequence of Gαq D296A P298D (murine) (P21279 7-359 D296A/P298D): as the sequence (P21279 7-359 K311A) above, with D290A, P292D, A305K counted along it
Sequence of murine Gαq (residues 7–359), biotinylated for bead binding (P21279 7-359): as the sequence (P21279 7-359 K311A) above, with A305K counted along it
Sequence of Gαq-ΔN (P21279 37-359, stated change not applied): as the sequence (P21279 37-359, stated change not applied) above

Ki [1] [µM] | EC50 of Gαq-stimulated PIP2 hydrolysis ([3H]-IP3 release from liposomes) [2] [µM] | Substance | other results
0.16 |  | PLCβ3 T652E (from UniProt Q01970) (enzyme) | 
 | 0.059 | Gαq-ΔN (from UniProt P21279 37-359) (domain or fragment) | 
0.23 |  | PLCβ3-Δ882-937 (from UniProt Q01970 10-1234) (enzyme) | 
0.49 |  | PLCβ3-Δ892 (from UniProt Q01970 10-892) (domain or fragment) | Ki [4]: 0.42 µM; Ki [5]: 0.38 µM; Ki [3]: 0.49 µM
 | 0.059 | murine Gαq (residues 7–359), biotinylated for bead binding (from UniProt P21279 7-359) (natural protein) | EC50 of Gαq-stimulated PIP2 hydrolysis ([3H]-IP3 release from liposomes) [6]: 0.25 µM
0.012 |  | PLCβ3-Δ882-937 L876A (from UniProt Q01970 10-1234) (enzyme) | 
0.02 |  | PLCβ3 L876A (from UniProt Q01970 10-1234) (enzyme) | Ki [4]: 0.012 µM; Ki [5]: 0.016 µM; Ki [3]: 0.024 µM
0.25 |  | PLCβ3-Δ892 T652E (from UniProt Q01970 10-892) (domain or fragment) | 
 | 0.15 | Gαq C9S C10S (from UniProt P21279 7-359) (natural protein) | 
 |  | AF488-labeled PLCβ3-Δ892 R872A L876A L879A (from UniProt Q01970 10-892) (domain or fragment) | Kd [1]: 0.04 µM
 | 0.54 | Gαq D296A P298D (from UniProt P21279 7-359) (natural protein) | 
 | 0.15 | Gαq K311A (from UniProt P21279 7-359) (natural protein) | 
 |  | human PLCβ3 (residues 10–1234) (from UniProt Q01970 10-1234) (enzyme) | Ki [5]: 0.26 µM

Substance | Ki [1] [µM] | EC50 of Gαq-stimulated PIP2 hydrolysis ([3H]-IP3 release from liposomes) [2] [µM] | other results
PLCβ3 I1129E V1133E I1136E triple mutant (from UniProt Q01970) (enzyme) | 0.093 |  | Ki [3]: 0.078 µM
PLCβ3 L876A EEE (from UniProt Q01970) (enzyme) | 0.026 |  | Ki [3]: 0.042 µM
